# Patent US20220033501A1 (SHANGHAI PHARMAEXPLORER, published 2022)
# T1: human TIM-3, full length, on cells (human, UniProt Q8TDQ0 22-301)
# T1 construct: Also used here for native TIM-3 on PBMC in the functional rows; also called CHOK1-hTIM-3; HEK293-h TIM-3
# T1 sequence: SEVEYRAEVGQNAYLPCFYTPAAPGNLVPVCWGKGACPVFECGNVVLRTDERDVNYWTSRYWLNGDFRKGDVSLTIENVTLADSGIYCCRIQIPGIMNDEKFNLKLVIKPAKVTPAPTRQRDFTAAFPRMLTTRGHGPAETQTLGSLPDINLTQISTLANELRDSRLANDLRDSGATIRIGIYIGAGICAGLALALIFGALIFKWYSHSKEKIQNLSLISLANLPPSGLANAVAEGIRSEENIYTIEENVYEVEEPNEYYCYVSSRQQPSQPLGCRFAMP
# Experiments:
# [1] = molecular target: T1, human TIM-3, full length, on cells; assay: FACS, CHOK1-hTIM-3 cells; antibody 40 nM
# Description: (§1) The pIRES plasmid containing the full-length nucleotide sequence encoding human TIM-3 as described in Example 1 was transfected into CHOK1 cell line to obtain a CHOK1 stable cell line containing human TIM-3 (herein referred to as CHOK1-hTIM-3 stable cell line). The pIRES plasmid containing the full-length gene of monkey TIM-3 was transfected into CHOK1 cell line to construct a CHOK1 stable cell line containing monkey TIM-3 (herein referred to as CHOK1-cTIM-3 stable cell line). The CHOK1-hTIM-3 stable cell line and CHOK1-cTIM-3 stable cell line were expanded to a confluence of 90% in a T-75 cell culture flask. The medium was aspirated, and the cells were washed with HBSS (Hanks' Balanced Salt Solution) 1-2 times, and then treated with an enzyme-free cell dissociation solution (Versene solution: Life technology) and the cells were collected. The cells were washed with HBSS buffer for 1-2 times. After counted, the cells were diluted with HBSS to 1-2×10⁶ cells per ml, added with 1% goat serum blocking solution, incubated on ice for 20-30 minutes, and then washed with HBSS by centrifugation 2 times. The collected cells were suspended in the FACS buffer (HBSS+1% BSA) to 2×10⁶ cells/ml, added as 100 microliters per well to a 96-well FACS reaction plate, added with 100 microliters per well of the antibody sample to be tested, incubated on ice for 1-2 hours. The plate was washed twice with the FACS buffer by centrifugation, added with 100 microliters of fluorescent (Alexa 488)-labeled secondary antibodies per well, and incubated on ice for 0.5-1.0 hours. The plate was washed 2-3 times with FACS buffer by centrifugation, added with 100 μl fixative solution (4% Paraformaldehyde) per well to suspend the cells. 5-10 minutes later, it was washed 1-2 times with FACS buffer by centrifugation. The cells were suspended with 100 microliters of FACS buffer, FACS (FACSCalibur, BD) was used for detection and the results were analyzed. The results are shown in FIGS. 7 and 8, Tables 7 and 8, wherein the IgG control is rat IgG, and the data in the table are the average fluorescence intensity values of the cell populations measured by MFI.
# [2] = molecular target: T1, human TIM-3, full length, on cells; assay: FACS, CHOK1-hTIM-3 cells; antibody 1.6 nM
# Description: as §1
# [3] = molecular target: T1, human TIM-3, full length, on cells; assay: FACS, CHOK1-hTIM-3 cells; antibody 0.32 nM
# Description: as §1
Binder,Mean fluorescence intensity [1],Mean fluorescence intensity [2],Mean fluorescence intensity [3]
"18D2H2 (TIM-3 antibody purified from hybridoma, chimeric antibody of Example 2) (antibody, V domains shown, From hybridoma of Harbour H2L2 transgenic mice: human variable regions, rat constant regions) VH: EVQLVESGGDLVQPGGSLRLSCAASGFTFSTYWMTWVRQAPGRGLEWVANIKQDGSAKYYVDSVKGRFTLSRDDAKNSLYLQMNSLRAEDTAVYYCARGSNWFDYWGQGTLVTVSS VL: ETVMTQSPATLSVSPGERATLSCRANQNVYSNLAWYQQKPGQAPRLLIYDASTRATGFPARFSGSGSGTEFTLTISSLQSEDFAVYYCQQYNNWPLTFGGGTKVEIK",185,40.2,15.6
"57F4E5 (TIM-3 antibody purified from hybridoma, chimeric antibody of Example 2) (antibody, V domains shown, From hybridoma of Harbour H2L2 transgenic mice: human variable regions, rat constant regions) VH: EVQLVESGGGLVQPGGSLRLSCAASGFTFSSYWMSWVRQAPGKGLEWVANIKQDGSEKYYVDSVKGRFTISRDSAKNSLYLQMNSLRAEDTAMYFCARDSNFFDYWGQGTLVTVSS VL: ETVMTQSPATLSVSPGERATLSCRASQSVSSNLAWYQRKPGQAPRLLIYFSSTRATGIPARFSGSGSGTEFTLTISSLQSEDFAVYYCQQYNNWPLTFGGGTKVEIK",485,390,177
"7A4F10 (TIM-3 antibody purified from hybridoma, chimeric antibody of Example 2) (antibody, V domains shown, From hybridoma of Harbour H2L2 transgenic mice: human variable regions, rat constant regions) VH: EVQLLESGGGLVQPGGSLRLSCAASGFTFRTHLISWVRQAPGKGLEWVAAITGSGGSTYYADSVKGRFIISRDNSKNTLFLQMNSLRAEDTAVYYCAKDGGSGSYDDFWGQGTLVTVSS VL: ETVLTQSPVTLSLSPGERATLSCRASQSVGSYLAWYQQKPGQAPRLLIYDASNRATGIPARFSGSGSGTDFTLTISSLEPEDFAVYYCQQRSNWPPTFGQGTKVEIK",144,15.4,6.8

# Continued, values first:
Mean fluorescence intensity [1],Mean fluorescence intensity [2],Mean fluorescence intensity [3],Binder
230,50,17.7,"134H3G6 (TIM-3 antibody purified from hybridoma, chimeric antibody of Example 2) (antibody, V domains shown, From hybridoma of Harbour H2L2 transgenic mice: human variable regions, rat constant regions) VH: EVQLVESGGGLVQPGGSLRLSCAASGFTFSNSWMTWVRQAPGKGLEWVANIKQAGTEKYYVDSVKGRFTISRDNAKNSLYLQMNSLRAEDTAVYYCNSGSNYFDYWGQGTLVTVSS VL: EIVMTQSPATLSVSPGERATLSCRARQNFYSNLAWYQQKPGQAPRLLIYGASTRATGIPARFSGSGSGTEFTLTISSLQSEDFAVYYCQQYNNWPLTFGGGTKVEIK"
610,214,55.6,"215A8F2 (TIM-3 antibody purified from hybridoma, chimeric antibody of Example 2) (antibody, V domains shown, From hybridoma of Harbour H2L2 transgenic mice: human variable regions, rat constant regions) VH: QVQLQQWGAGLLKPSETLSLTCTVYGGSFSGYYWNWIRQPPGKGLEWLGEINHSGSTNYNPSLKRRVTISVDTSKNQFSLKLSSVTAADTAVYYCARVYYYGPFDFWGQGTLVTVSS VL: not shown"
